For data set [1], the system named is Ac-Nle-Thr-Pro-Lys-AMC.
In data set [2] the test system is Ac-Nle-Thr-Pro-Lys-ACC.
In data set [3] the test system is Ac-Leu-Gly-Pro-Lys-ACC.
Data set [4] concerns Ac-Leu-Gly-Pro-Lys-AMC.
The subject of data set [5] is Ac-PRNK-ACC.
For data set [6], the system named is Ac-PANK-ACC.
Data set [7] deals with Ac-PRTK-ACC.
The test system of data set [8] is Ac-PRNR-ACC.

Recombinant human βI tryptase, sequence (chain, as listed by the source): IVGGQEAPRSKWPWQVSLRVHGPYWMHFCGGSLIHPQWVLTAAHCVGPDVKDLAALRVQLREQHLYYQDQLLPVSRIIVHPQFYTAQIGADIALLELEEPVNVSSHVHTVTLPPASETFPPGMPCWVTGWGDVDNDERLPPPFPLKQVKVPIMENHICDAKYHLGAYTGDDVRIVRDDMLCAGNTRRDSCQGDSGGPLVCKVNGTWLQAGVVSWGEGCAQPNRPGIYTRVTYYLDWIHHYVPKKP

With Human thrombin, the Km (in general, the concentration of substrate that gives half-maximal velocity) was found to be 115 µM in data set [1], 125 µM in data set [2], 195 µM in data set [3] and 160 µM in data set [4]. The kcat (commonly the number of substrate molecules converted per active site and unit of time at saturation) in data set [1] is 31 s⁻¹; in data set [2] it was 33.7 s⁻¹; in data set [3] it was 3.2 s⁻¹; in data set [4], 2.3 s⁻¹. In addition, the catalytic efficiency (kcat/Km) (commonly the second-order rate constant that governs catalysis at low substrate concentration) in data set [1] stood at 260000 M⁻¹ s⁻¹; in data set [2] it was 280000 M⁻¹ s⁻¹; in data set [3], 18000 M⁻¹ s⁻¹; in data set [4], 15000 M⁻¹ s⁻¹.
Recombinant human βI tryptase: in data set [5], the Michaelis-Menten constant (Km) was determined as 8.9 µM; the kcat was 16.8 s⁻¹; the specificity constant (kcat/Km) came out at 1.89e+06 M⁻¹ s⁻¹; the “preference (kcat/Km) over Ac-PRTK-ACC” value is listed as “A minimal preference, approximately two-fold, for P2-asparagine over P2-threonine”. For the same substance, in data set [6], the Km worked out at 110 µM, the kcat worked out at 20.3 s⁻¹ and the catalytic efficiency (kcat/Km) came out at 180000 M⁻¹ s⁻¹. Moreover, in data set [7], the Km turned out to be 14.7 µM, the catalytic constant (kcat) stood at 18.7 s⁻¹ and the kcat/Km turned out to be 1.27e+06 M⁻¹ s⁻¹. For the same substance, in data set [8], the Km turned out to be 16.5 µM, the catalytic constant (kcat) turned out to be 21.8 s⁻¹ and the kcat/Km is 1.31e+06 M⁻¹ s⁻¹.
As for Recombinant human βII tryptase, the Michaelis-Menten constant (Km) in data set [5] was 14.5 µM; in data set [6], 133 µM; in data set [7], 23.4 µM; in data set [8], 18.6 µM. Moreover, the kcat in data set [5] came to 17.8 s⁻¹; in data set [6], 19.1 s⁻¹; in data set [7], 18.3 s⁻¹; in data set [8], 20.9 s⁻¹. Also, the kcat/Km in data set [5] was determined as 1.23e+06 M⁻¹ s⁻¹; in data set [6], 140000 M⁻¹ s⁻¹; in data set [7] it was 780000 M⁻¹ s⁻¹; in data set [8] it was 1.12e+06 M⁻¹ s⁻¹. In data set [5], the “preference (kcat/Km) over Ac-PRTK-ACC” value is “A minimal preference, approximately two-fold, for P2-asparagine over P2-threonine”.

(Values after patent US7629437.)
